System: eYFP under the control of the lactose operator (lacO)
Assay: in vivo dose-response curves of LacI variants to IPTG measured with flow cytometry (eYFP output), fit to the Hill equation
Type: cell-based, E. coli
Conditions: Hill fit of cytometry data; for n: the Hill coefficient: IPTG dose-response; for log_ginf: the base-10 logarithm of G∞ (in MEF): saturating output
Description: Dose-response curves were measured with flow cytometry using E. coli MG1655Δlac transformed with variants of the pVER plasmid, described previously. The plasmid contained different variants of the lacI coding DNA sequence (CDS), as described in the text, and an expression cassette with enhanced yellow fluorescent protein (eYFP) under the control of the lactose operator (lacO). The lacI CDS was verified with Sanger sequencing for each variant.
All cultures were grown in a rich M9 media (3 g/L KH2PO4, 6.78 g/L Na2HPO4, 0.5 g/L NaCl, 1 g/L NH4Cl, 0.1 mmol/L CaCl2, 2 mmol/L MgSO4, 4% glycerol, and 20 g/L casamino acids) supplemented with 50 μg/mL kanamycin.
For flow cytometry measurements, E. coli cultures were grown in a laboratory automation system that included an automated liquid handler (Hamilton, STAR), an automated plate sealer (4titude, a4S), an automated de-sealer (Brooks, XPeel), and two multi-mode plate readers (BioTek, Neo2SM).
Cultures were grown in clear polystyrene 96-well plates with 1.1 mL square wells (4titude, 4ti-0255). The culture volume per well was 0.5 mL. Before incubation, each 96-well growth plate was sealed by the automated plate sealer with a gas permeable membrane (4titude, 4ti-0598). Growth plates were incubated in one of the multi-mode plate readers at 37°C with a 1°C gradient applied from the bottom to the top of the incubation chamber to minimize condensation on the inside of the membrane. The plate readers were set for double-orbital shaking at 807 cycles per minute. Optical density at 600 nm (OD600) was measured every 5 minutes during incubation, with continuous shaking applied between measurements (optical density at 700 nm and YFP fluorescence were also measured every 5 minutes). After incubation, the automated de-sealer was used to remove the gas-permeable membrane from each 96-well plate to enable automated passaging of cultures and sample preparation for flow cytometry measurements.
For each measurement, starter cultures were prepared from glycerol freezer stock in 5 mL of rich M9 media in a 14 mL snap-cap culture tubes. Starter cultures were incubated at 37°C with orbital shaking at 300 rpm for between 4 h and 24 h prior to loading the automation system. The automation system then prepared 96-well growth plates, sealed and de-sealed the growth plates, incubated the growth plates, and prepared flow cytometry sample plates. The automated culture protocol consisted of the following steps: […]

B1: pVER-IPTG-003: LacI variant: V52M H74Y V119I G200V R207H L262M K290R Q306H A337V Q352* (protein, UniProt P03023 1-360, looked up, variant V52M H74Y V119I G200V R207H L262M K290R Q306H A337V Q352*)
Lactose operon repressor: MKPVTLYDVAEYAGVSYQTVSRVVNQASHVSAKTREKVEAAMAELNYIPNRMAQQLAGKQSLLIGVATSSLALYAPSQIVAAIKSRADQLGASVVVSMVERSGVEACKAAVHNLLAQRISGLIINYPLDDQDAIAVEAACTNVPALFLDVSDQTPINSIIFSHEDGTRLGVEHLVALGHQQIALLAGPLSSVSARLRLAVWHKYLTHNQIQPIAEREGDWSAMSGFQQTMQMLNEGIVPTAMLVANDQMALGAMRAITESGMRVGADISVVGYDDTEDSSCYIPPLTTIRQDFRLLGQTSVDRLLHLSQGQAVKGNQLLPVSLVKRKTTLAPNTQTVSPRALADSLMQLARVSRLESGQ
For B1, the “n: the Hill coefficient” value was 0.7133, the “log_g0: the base-10 logarithm of G0 (in MEF)” value (basal output, posterior mean, value is log10) was 4.508 MEF and the “log_ginf: the base-10 logarithm of G∞ (in MEF)” value (“log_ginf: the base-10 logarithm” for short) (posterior mean, value is log10) was 3.573 MEF.

B2: pVER-IPTG-WT(F161V): LacI variant: F161V (protein, UniProt P03023 1-360, looked up, variant F161V)
Lactose operon repressor: MKPVTLYDVAEYAGVSYQTVSRVVNQASHVSAKTREKVEAAMAELNYIPNRVAQQLAGKQSLLIGVATSSLALHAPSQIVAAIKSRADQLGASVVVSMVERSGVEACKAAVHNLLAQRVSGLIINYPLDDQDAIAVEAACTNVPALFLDVSDQTPINSIIVSHEDGTRLGVEHLVALGHQQIALLAGPLSSVSARLRLAGWHKYLTRNQIQPIAEREGDWSAMSGFQQTMQMLNEGIVPTAMLVANDQMALGAMRAITESGLRVGADISVVGYDDTEDSSCYIPPLTTIKQDFRLLGQTSVDRLLQLSQGQAVKGNQLLPVSLVKRKTTLAPNTQTASPRALADSLMQLARQVSRLESGQ
In the case of B2, the “n: the Hill coefficient” value is reported as 1.594.

B3: pVER-IPTG-WT(G200C): LacI variant: G200C (protein, UniProt P03023 1-360, looked up, variant G200C)
Lactose operon repressor: MKPVTLYDVAEYAGVSYQTVSRVVNQASHVSAKTREKVEAAMAELNYIPNRVAQQLAGKQSLLIGVATSSLALHAPSQIVAAIKSRADQLGASVVVSMVERSGVEACKAAVHNLLAQRVSGLIINYPLDDQDAIAVEAACTNVPALFLDVSDQTPINSIIFSHEDGTRLGVEHLVALGHQQIALLAGPLSSVSARLRLACWHKYLTRNQIQPIAEREGDWSAMSGFQQTMQMLNEGIVPTAMLVANDQMALGAMRAITESGLRVGADISVVGYDDTEDSSCYIPPLTTIKQDFRLLGQTSVDRLLQLSQGQAVKGNQLLPVSLVKRKTTLAPNTQTASPRALADSLMQLARQVSRLESGQ
In the case of B3, the “log_ginf: the base-10 logarithm” value (posterior mean, value is log10) is reported as 4.489 MEF.

B4: pVER-IPTG-WT(L56M/D130E): LacI variant: L56M D130E (protein, UniProt P03023 1-360, looked up, variant L56M D130E)
Lactose operon repressor: MKPVTLYDVAEYAGVSYQTVSRVVNQASHVSAKTREKVEAAMAELNYIPNRVAQQMAGKQSLLIGVATSSLALHAPSQIVAAIKSRADQLGASVVVSMVERSGVEACKAAVHNLLAQRVSGLIINYPLDEQDAIAVEAACTNVPALFLDVSDQTPINSIIFSHEDGTRLGVEHLVALGHQQIALLAGPLSSVSARLRLAGWHKYLTRNQIQPIAEREGDWSAMSGFQQTMQMLNEGIVPTAMLVANDQMALGAMRAITESGLRVGADISVVGYDDTEDSSCYIPPLTTIKQDFRLLGQTSVDRLLQLSQGQAVKGNQLLPVSLVKRKTTLAPNTQTASPRALADSLMQLARQVSRLESGQ
With B4 the “n: the Hill coefficient” value was 1.42.

B5: pVER-IPTG-WT(L56M/A194V): LacI variant: L56M A194V (protein, UniProt P03023 1-360, looked up, variant L56M A194V)
Lactose operon repressor: MKPVTLYDVAEYAGVSYQTVSRVVNQASHVSAKTREKVEAAMAELNYIPNRVAQQMAGKQSLLIGVATSSLALHAPSQIVAAIKSRADQLGASVVVSMVERSGVEACKAAVHNLLAQRVSGLIINYPLDDQDAIAVEAACTNVPALFLDVSDQTPINSIIFSHEDGTRLGVEHLVALGHQQIALLAGPLSSVSVRLRLAGWHKYLTRNQIQPIAEREGDWSAMSGFQQTMQMLNEGIVPTAMLVANDQMALGAMRAITESGLRVGADISVVGYDDTEDSSCYIPPLTTIKQDFRLLGQTSVDRLLQLSQGQAVKGNQLLPVSLVKRKTTLAPNTQTASPRALADSLMQLARQVSRLESGQ
With B5 the “n: the Hill coefficient” value was 1.42.

B6: pVER-IPTG-WT(I83M): LacI variant: I83M (protein, UniProt P03023 1-360, looked up, variant I83M)
Lactose operon repressor: MKPVTLYDVAEYAGVSYQTVSRVVNQASHVSAKTREKVEAAMAELNYIPNRVAQQLAGKQSLLIGVATSSLALHAPSQIVAAMKSRADQLGASVVVSMVERSGVEACKAAVHNLLAQRVSGLIINYPLDDQDAIAVEAACTNVPALFLDVSDQTPINSIIFSHEDGTRLGVEHLVALGHQQIALLAGPLSSVSARLRLAGWHKYLTRNQIQPIAEREGDWSAMSGFQQTMQMLNEGIVPTAMLVANDQMALGAMRAITESGLRVGADISVVGYDDTEDSSCYIPPLTTIKQDFRLLGQTSVDRLLQLSQGQAVKGNQLLPVSLVKRKTTLAPNTQTASPRALADSLMQLARQVSRLESGQ
With B6 the “log_ginf: the base-10 logarithm” value (posterior mean, value is log10) was 4.268 MEF.
